# Target: prototype SARS-CoV-2 tandem RBD homotrimer (PPP) (SARS-CoV-2, UniProt P0DTC2)
# Experiment: cryo-EM structure
# Settings: both partners purified
binder,measurement,value
"fragment antigen binding (Fab) of mAb CB6 (Fab, V domains shown) VH: EVQLVESGGGLVQPGGSLRLSCAASGFTVSSNYMSWVRQAPGKGLEWVSVIYSGGSTFYADSVKGRFTISRDNSMNTLFLQMNSLRAEDTAVYYCARVLPMYGDYLDYWGQGTLVTVSS VL: not shown",stoichiometry N,3

# — PMC10538664 (PLOS Pathogens, 2023)
